Patent US20210379195A1, “METHODS FOR ALLOGENEIC HEMATOPOIETIC STEM CELL TRANSPLANTATION” (Magenta Therapeutics, Inc., priority 2018, published 2021)

Target: T1, CD117 (Homo sapiens, UniProt P10721)
Assay: In vitro stem cell factor (SCF)-dependent cell proliferation assay (neutral vs antagonist)
Assay type: cell-based
Design: endogenous in cells; host or cells: CD34+ cells dependent on SCF
Excerpt: Neutral antibodies can be identified using, for example, an in in vitro stem cell factor (SCF)-dependent cell proliferation assay. In an SCF dependent cell proliferation assay, a neutral CD117 antibody will not kill CD34+ cells that are dependent on SCF to divide, as a neutral antibody will not block SCF from binding to CD117 such as to inhibit CD117 activity.

T1 sequence (P10721 26-976): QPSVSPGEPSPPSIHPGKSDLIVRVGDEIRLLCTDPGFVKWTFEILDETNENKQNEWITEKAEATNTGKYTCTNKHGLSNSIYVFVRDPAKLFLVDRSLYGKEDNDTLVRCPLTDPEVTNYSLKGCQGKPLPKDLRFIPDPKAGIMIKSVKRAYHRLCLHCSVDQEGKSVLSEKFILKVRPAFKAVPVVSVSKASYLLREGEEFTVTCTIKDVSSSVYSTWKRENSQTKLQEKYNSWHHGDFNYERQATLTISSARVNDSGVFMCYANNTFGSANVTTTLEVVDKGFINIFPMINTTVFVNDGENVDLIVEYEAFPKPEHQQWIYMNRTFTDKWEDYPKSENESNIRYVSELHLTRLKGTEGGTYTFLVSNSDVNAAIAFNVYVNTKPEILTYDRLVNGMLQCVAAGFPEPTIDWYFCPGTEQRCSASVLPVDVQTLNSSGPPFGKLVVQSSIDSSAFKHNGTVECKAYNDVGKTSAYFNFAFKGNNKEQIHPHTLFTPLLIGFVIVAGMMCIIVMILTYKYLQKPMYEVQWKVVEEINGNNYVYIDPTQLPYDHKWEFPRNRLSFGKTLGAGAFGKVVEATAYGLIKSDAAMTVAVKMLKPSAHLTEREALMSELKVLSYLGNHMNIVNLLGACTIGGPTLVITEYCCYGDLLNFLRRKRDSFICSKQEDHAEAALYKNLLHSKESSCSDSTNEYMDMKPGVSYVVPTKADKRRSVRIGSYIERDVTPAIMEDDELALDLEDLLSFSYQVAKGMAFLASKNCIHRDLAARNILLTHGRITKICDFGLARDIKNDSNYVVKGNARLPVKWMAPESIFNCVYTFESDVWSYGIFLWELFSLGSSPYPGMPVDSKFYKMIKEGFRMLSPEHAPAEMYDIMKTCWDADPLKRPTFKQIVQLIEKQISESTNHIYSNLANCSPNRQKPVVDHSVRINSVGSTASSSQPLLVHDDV

Row | Molecule | effect on CD117 activity (neutral or antagonist antibody)
1 | Ab54: anti-CD117 antibody, VH SEQ ID NO: 29, VL SEQ ID NO: 30 (antibody, V domains shown) VH: QVQLVQSGAEVKKPGSSVKVSCKASGGTFSSYAISWVRQAPGQGLEWMGGIIPIFGTANYAQKFQGRVTITADESTSTAYMELSSLRSEDTAVYYCARGGLDTDEFDLWGRGTLVTVSS VL: DIQMTQSPSSLSASVGDRVTITCRASQSINSYLNWYQQKPGKAPKLLIYAASSLQSGVPSRFSGSGSGTDFTLTISSLQPEDFATYYCQQGVSDITFGGGTKVEIK | Antagonist
2 | Ab57: anti-CD117 antibody, VH SEQ ID NO: 49, VL SEQ ID NO: 50 (antibody, V domains shown) VH: QVQLVQSGAEVKKPGSSVKVSCKASGGTFSLYAISWVRQAPGQGLEWMGGIIPHFGLANYAQKFQGRVTITADESTSTAYMELSSLRSEDTAVYYCARGGLDTDEFDLWGRGTLVTVSS VL: DIQMTQSPSSLSASVGDRVTITCRASQSINSYLNWYQQKPGKAPKLLIYAASSLQSGVPSRFSGSGSGTDFTLTISSLQPEDFATYYCQQGVSDITFGGGTKVEIK | Antagonist
3 | Ab56: anti-CD117 antibody, VH SEQ ID NO: 39, VL SEQ ID NO: 40 (antibody, V domains shown) VH: QVQLVQSGAEVKKPGSSVKVSCKASGGTFSLYAISWVRQAPGQGLEWMGGIIPAFGTANYAQKFQGRVTITADESTSTAYMELSSLRSEDTAVYYCARGGLDTDEFDLWGRGTLVTVSS VL: DIQMTQSPSSLSASVGDRVTITCRASQSINSYLNWYQQKPGKAPKLLIYAASSLQSGVPSRFSGSGSGTDFTLTISSLQPEDFATYYCQQGVSDITFGGGTKVEIK | Antagonist
4 | Ab55: anti-CD117 antibody, VH SEQ ID NO: 19, VL SEQ ID NO: 20 (antibody, V domains shown) VH: QVQLVQSGAEVKKPGSSVKVSCKASGGTFRIYAISWVRQAPGQGLEWMGGIIPDFGVANYAQKFQGRVTITADESTSTAYMELSSLRSEDTAVYYCARGGLDTDEFDLWGRGTLVTVSS VL: DIQMTQSPSSLSASVGDRVTITCRASQSINSYLNWYQQKPGKAPKLLIYAASSLQSGVPSRFSGSGSGTDFTLTISSLQPEDFATYYCQQGVSDITFGGGTKVEIK | Antagonist
5 | Ab61: anti-CD117 antibody, VH SEQ ID NO: 69, VL SEQ ID NO: 70 (antibody, V domains shown) VH: EVQLLESGGGLVQPGGSLRLSCAASGFTFSSYVMIWVRQAPGKGLEWVSSISGDSVTTYYADSVKGRFTISRDNSKNTLYLQMNSLRAEDTAVYYCAKGPPTYHTNYYYMDVWGKGTTVTVSS VL: DIQMTQSPSSVSASVGDRVTITCRASQGISSWLAWYQQKPGKAPKLLIYAASSLQSGVPSRFSGSGSGTDFTLTISSLQPEDFATYYCQQTNSFPYTFGGGTKVEIK | neutral

Target: T1, CD117
Assay: Bio-layer interferometry (BLI) binding
Excerpt: In certain embodiments, an anti-CD117 antibody, or antigen binding fragment thereof, has a certain dissociation rate which is particularly advantageous when used as a part of a conjugate. For example, an anti-CD117 antibody has, in certain embodiments, an off rate constant (Koff) for human CD117 and/or rhesus CD117 of 1×10^−2 to 1×10^−3, 1×10^−3 to 1×10^−4, […] or 1×10^−7 to 1×10^−8, as measured by bio-layer interferometry (BLI). In some embodiments, the antibody or antigen-binding fragment thereof binds CD117 (e.g., human CD117 and/or rhesus CD117) with a KD of about 100 nM or less, about 90 nM or less, about 80 nM or less, about 70 nM or less, about 60 nM or less, about 50 nM or less, about 40 nM or less, about 30 nM or less, about 20 nM or less, about 10 nM or less, about 8 nM or less, about 6 nM or less, about 4 nM or less, about 2 nM or less, about 1 nM or less as determined by a Bio-Layer Interferometry (BLI) assay.
Thus, in certain embodiments, an anti-CD117 antibody comprises a heavy chain comprising a CDR set (CDR1, CDR2, and CDR3) as set forth in SEQ ID Nos: 245, 246, and 247, and a light chain comprising a CDR set as set forth in SEQ ID Nos: 248, 249, and […], internalizes in cells expressing CD117, and has a koff rate of 5×10^−4 s^−1 or less as measured by BLI.

Row | Molecule | binding characteristics over CK6
6 | Ab249: human anti-CD117 antibody derived from CK6, VH SEQ ID NO: 238, VL SEQ ID NO: 242 (antibody, V domains shown) VH: EVQLVQSGAEVKKPGESLKISCKGSGYRFTTSWIGWVRQMPGKGLEWMGIIYPGDSDTRYSPSFQGQVTISADKSISTAYLQWSSLKASDTAMYYCARHGLGYNGYEGAFDIWGQGTLVTVSS VL: DIQMTQSPSSLSASVGDRVTITCRASQGIGSALAWYQQKPGKAPKLLIYDASNLETGVPSRFSGSGSGTDFTLTISSLQPEDFATYYCQQLNGYPLTFGQGTRLEIK | improved binding characteristics
